# B1: DNA primase (Geobacillus stearothermophilus), Q9X4D0 (parent)
# chain: MGHRIPEETIEAIRRGVDIVDVIGEYVQLKRQGRNYFGLCPFHGEKTPSFSVSPEKQIFHCFGCGAGGNAFTFLMDIEGIPFVEAAKRLAAKAGVDLSVYELDVRGRDDGQTDEAKAMTEAHALLKRFYHHLLVHTKEGQAALDYLQARGWTKETIDRFEIGYAPDAPDAAAKLLESHSFSLPVMEKAGLLTKKEDGRYVGRFRNRIMFPIHDHRGETVGFSGRLLGEGHPKYVNSPETPVFRKGAILYHFHAARVPIRKRQEALLVEGFADVISAAQAGIDYAIATMGTSLTEEQARILRPCDTITICYDGDRAGIEAAWAAAEQLSALGCRVKVASLPNGLDPDEYIRVYGGERFAGEAGCRRPLVAFKMAYLRRGKNLQHEGERLRYIDEALREIGKLSSPVEQDYYLRQLAEEFSLSLSALHEQLSRSQRERTKPREAPDGETARPMLAKKLLPAFQNAERLLLAHMMRSRDVALVVQERIGGRFNIEEHRALAAYIYAFYEEGHEADPGALISRIPGELQPLASDVSLLLIADDVSEQELEDYIRHVLNRPKWLMLKVKEQEKTEAERRKDFLTAARIAKEMIEMKKMLSSS
# partner: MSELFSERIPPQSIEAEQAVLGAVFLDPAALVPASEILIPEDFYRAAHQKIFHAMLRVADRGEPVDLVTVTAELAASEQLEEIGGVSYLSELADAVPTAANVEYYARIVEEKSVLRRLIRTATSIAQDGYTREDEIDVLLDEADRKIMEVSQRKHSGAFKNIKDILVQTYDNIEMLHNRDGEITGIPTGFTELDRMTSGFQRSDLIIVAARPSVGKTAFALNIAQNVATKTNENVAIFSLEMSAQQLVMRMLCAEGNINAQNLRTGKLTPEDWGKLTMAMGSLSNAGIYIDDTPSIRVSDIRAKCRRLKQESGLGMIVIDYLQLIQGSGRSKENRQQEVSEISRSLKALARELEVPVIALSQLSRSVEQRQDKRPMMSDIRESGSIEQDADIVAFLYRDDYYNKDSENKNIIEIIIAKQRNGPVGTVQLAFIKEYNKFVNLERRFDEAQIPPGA
# Variants of: B1
# Conditions: with dnab_geose dnaB
row,Variant,effect of a mutation on the interaction
1,P458A,decreasing interaction strength

# Variants of: B1
# Conditions: with dnab_geose dnaB
# Remark: another data set of the same source
row,Variant,effect of a mutation on the interaction
1,Y548A,decreasing interaction strength
